Test results taken from patent US11332512B2, “Peptides and combination of peptides for use in immunotherapy against various tumors” (Immatics Biotechnologies GmbH, priority 2015, dated 2022).

Columns and labels:
HLA-A*02:01 = HLA-A*02:01 (Homo sapiens, UniProt P04439, D140Y/D185E/D98H/E176V/E277Q/G131W/G231S/I119V/I121R/I166T/I218V/L300P/L318F/N151K/N90K/P208A/P217A/Q86G/Q94H/R138H/R169H/T345S); assay: MHC binding assay: UV-ligand exchange with beta2m ELISA (peptide exchange yield); settings: binding to HLA-A*02:01, β2m ELISA
In short: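 Exchange yield, UV-ligand exchange: 100-fold diluted samples on streptavidin plates, 1 h at 37 °C; HRP anti-β2m 1 h at 37 °C; TMB read at 450 nm.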

CD8+ T cells = assay: In vitro immunogenicity: T-cell priming with aAPCs loaded with peptide/MHC and anti-CD28, pMHC multimer readout; type: cell-based, human; settings: percentage of positive wells among evaluable, HLA-A*02 restricted peptides
Description: In order to obtain information regarding the immunogenicity of the TUMAPs of the present invention, the inventors performed investigations using an in vitro T-cell priming assay based on repeated stimulations of CD8+ T cells with artificial antigen presenting cells (aAPCs) loaded with peptide/MHC complexes and anti-CD28 antibody.
In order to perform in vitro stimulations by artificial antigen presenting cells loaded with peptide-MHC complex (pMHC) and anti-CD28 antibody, the inventors first isolated CD8+ T cells from fresh HLA-A*02 leukapheresis products via positive selection using CD8 microbeads (Miltenyi Biotec, Bergisch-Gladbach, Germany) of healthy donors obtained from the University clinics Mannheim, Germany, after informed consent. PBMCs and isolated CD8+ lymphocytes were incubated in T-cell medium (TCM) until use consisting of RPMI-Glutamax (Invitrogen, Karlsruhe, Germany) supplemented with 10% heat inactivated human AB serum (PAN-Biotech, Aidenbach, Germany), 100 U/ml Penicillin/100 μg/ml Streptomycin (Cambrex, Cologne, Germany), 1 mM sodium pyruvate (CC Pro, Oberdorla, Germany), 20 μg/ml Gentamycin (Cambrex). 2.5 ng/ml IL-7 (PromoCell, Heidelberg, Germany) and 10 U/ml IL-2 (Novartis Pharma, Nürnberg, Germany) were also added to the TCM at this step. Generation of pMHC/anti-CD28 coated beads, T-cell stimulations and readout was performed in a highly defined in vitro system using four different pMHC molecules per stimulation condition and 8 different pMHC molecules per readout condition.
The purified co-stimulatory mouse IgG2a anti human CD28 Ab 9.3 (Jung et al., 1987) was chemically biotinylated using Sulfo-N-hydroxysuccinimidobiotin as recommended by the manufacturer (Perbio, Bonn, Germany). Beads used were 5.6 μm diameter streptavidin coated polystyrene particles (Bangs Laboratories, Illinois, USA).
pMHC used for positive and negative control stimulations were A*0201/MLA-001 (peptide […] (SEQ ID NO. 289) from modified Melan-A/MART-1) and A*0201/DDX5-001 ([…] from DDX5, SEQ ID NO. 290), respectively.
800.000 beads/200 μl were coated in 96-well plates in the presence of 4×12.5 ng different biotin-pMHC, washed and 600 ng biotin anti-CD28 were added subsequently in a volume of 200 μl. Stimulations were initiated in 96-well plates by co-incubating 1×10^6 CD8+ T cells with 2×10^5 washed coated beads in 200 μl TCM supplemented with 5 ng/ml IL-12 (PromoCell) for 3 days at 37° C. Half of the medium was then exchanged by fresh TCM supplemented with 80 U/ml IL-2 and incubating was continued for 4 days at 37° C. This stimulation cycle was performed for a total of three times. For the pMHC multimer readout using 8 different pMHC molecules per condition, a two-dimensional combinatorial coding approach was used as previously described (Andersen et al., 2012) with minor modifications encompassing coupling to 5 different fluorochromes. Finally, multimeric analyses were performed by staining the cells with Live/dead near IR dye (Invitrogen, Karlsruhe, Germany), CD8-FITC antibody clone SK1 (BD, Heidelberg, Germany) and fluorescent pMHC multimers. For analysis, a BD LSRII SORP cytometer equipped with appropriate lasers and filters was used. Peptide specific cells were calculated as percentage of total CD8+ cells. Evaluation of multimeric analysis was done using the FlowJo software (Tree Star, Oregon, USA). In vitro priming of specific multimer+CD8+ lymphocytes was detected by comparing to negative control stimulations.

| Substance | Peptide exchange (MHC class I binding score, peptide exchange yield) (HLA-A*02:01) | Wells positive [%] (CD8+ T cells) |
| --- | --- | --- |
| 255 (FLMKNSDLYGA; listed as Homo sapiens) [compound 255] | +++ (= ≥50% = +++) | + (<20% = +) |
| 257 (KLIDHQGLYL; listed as Homo sapiens) [compound 257] | +++ (= ≥50% = +++) | + (<20% = +) |
| 260 (ALNESLVEC; listed as Homo sapiens) [compound 260] | +++ (= ≥50% = +++) | + (<20% = +) |
| 263 (SIIEYLPTL; listed as Homo sapiens) [compound 263] | +++ (= ≥50% = +++) | + (<20% = +) |
| 267 (YLLDMPLWYL; listed as Homo sapiens) [compound 267] | +++ (= ≥50% = +++) | + (<20% = +) |
